The test system of data set [1] is Saccharomyces cerevisiae. The data set can be described thus: protein stability index of tFT-peptide fusion in deletion strain of DAS1 (PSI (0-1 scale)); higher = more stable (slower turnover). The protocol:
(§1)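 MPS profiling in S. cerevisiae of two library types built from selected 12-aa C-degron peptides (IN1, IN2, LN1, LN3, VN2, R1-R5, W1-W3, Atg1 and Rpa12 C-termini): saturation mutagenesis libraries and C-terminal +1 capping libraries (13 aa). Each peptide is fused to the C-terminus of a sfGFP-mCherry timer, after a GGGS linker. Cells are FACS-sorted into 8 mCherry/sfGFP bins and sequenced. PSI runs from 0 (unstable) to 1 (stable), measured once in wild type and in the das1Δ or doa10Δ background.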

Data set [2] deals with Saccharomyces cerevisiae. The data set can be described thus: protein stability index of tFT-peptide fusion in wild type (PSI (0-1 scale)); higher = more stable (slower turnover). The note with it: genetic background: wild type. The method, then: as §1
Data set [3] relates to Saccharomyces cerevisiae. In words: protein stability index of tFT-peptide fusion (C-terminal peptide) (PSI (0-1 scale)); higher = more stable (slower turnover). The note with it: temperature: 30 C. The protocol: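 MPS profiling in S. cerevisiae of the yeast C-terminome library: the last 12 aa of each annotated ORF are fused to the C-terminus of a sfGFP-mCherry timer, after a GGGS linker. Cells are FACS-sorted into 8 mCherry/sfGFP bins and deep-sequenced. PSI runs from 0 (unstable) to 1 (stable); wild type and das1Δ backgrounds, two technical replicates each.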

Setting [4] is: genetic background: das1 deletion.

± gives the standard deviation of the averaged measurements.

The source of these data is the supplement of paper PMC10724198.
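For protein stability index of tFT-peptide fusion in deletion strain of DAS1 in this document: PSI is a weighted mean of each variant's read distribution over the sorted stability bins, computed only for variants having over 10 reads in total.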
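For protein stability index of tFT-peptide fusion in wild type in this document: PSI derived as read-weighted mean over the 8 sorting bins, only variants exceeding 10 total reads kept, mCherry placed adjacent to the peptide and sfGFP distal.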

Take ARFRVGLWRGAS: the protein stability index stood at 0.668 with Saccharomyces cerevisiae [1] and 0.56 with Saccharomyces cerevisiae [2].

On to ARPRVGLWRGAS, for which the protein stability index stood at 0.681 in the data set with Saccharomyces cerevisiae [1] and 0.65 with Saccharomyces cerevisiae [2].

Consider ARWAVGLWRGAS, for which the results for the protein stability index in the data set on Saccharomyces cerevisiae [1] and in the data set on Saccharomyces cerevisiae [2] were 0.71 and 0.428, respectively.

For ARWRQGLWRGAS, the protein stability index in the data set with Saccharomyces cerevisiae [1] was determined as 0.616; in the data set on Saccharomyces cerevisiae [2], 0.678.

ARWRVGGWRGAS: the protein stability index turned out to be 0.701 in the data set with Saccharomyces cerevisiae [1] and 0.557 in the data set on Saccharomyces cerevisiae [2].

Take ARWRVGLWDGAS: the results for the protein stability index in the data set on Saccharomyces cerevisiae [1] and with Saccharomyces cerevisiae [2] were 0.688 and 0.705, respectively.

With ARWRVGLWRGAE, the protein stability index stood at 0.685 with Saccharomyces cerevisiae [1] and 0.644 in the data set on Saccharomyces cerevisiae [2].

Consider ARWRVGLWRGAK, for which the figures for the protein stability index in the data set on Saccharomyces cerevisiae [1] and with Saccharomyces cerevisiae [2] were 0.659 and 0.669, respectively.

In the case of ARWRVGLWRGASC, the protein stability index in the data set on Saccharomyces cerevisiae [1] was 0.669; in the data set with Saccharomyces cerevisiae [2], 0.628.

Turning to ARWRVGLWRGASS, the protein stability index was 0.688 with Saccharomyces cerevisiae [1] and 0.593 in the data set on Saccharomyces cerevisiae [2].

Regarding ARWRVGLWRGCS, the protein stability index in the data set on Saccharomyces cerevisiae [1] was found to be 0.683; in the data set on Saccharomyces cerevisiae [2] it was 0.266.

As to ARWRVGLWRGYS, the protein stability index in the data set on Saccharomyces cerevisiae [1] came out at 0.659; in the data set with Saccharomyces cerevisiae [2], 0.621.

As to ARWRVGLWRMAS, the protein stability index with Saccharomyces cerevisiae [1] was 0.683; in the data set on Saccharomyces cerevisiae [2] it was 0.0865.

For the sequence ARWRVGMWRGAS, the protein stability index amounted to 0.701 in the data set on Saccharomyces cerevisiae [1] and 0.458 in the data set with Saccharomyces cerevisiae [2].

Take ARWRVGNWRGAS: the protein stability index with Saccharomyces cerevisiae [1] was determined as 0.678; in the data set with Saccharomyces cerevisiae [2], 0.684.

As for ARWRVGPWRGAS, the protein stability index with Saccharomyces cerevisiae [1] is 0.68; with Saccharomyces cerevisiae [2], 0.577.

Turning to ARWRVGRWRGAS, the figures for the protein stability index in the data set with Saccharomyces cerevisiae [1] and with Saccharomyces cerevisiae [2] were 0.688 and 0.533, respectively.

For ARWRVTLWRGAS, the results for the protein stability index in the data set with Saccharomyces cerevisiae [1] and with Saccharomyces cerevisiae [2] were 0.692 and 0.382, respectively.

On to ARWSVGLWRGAS, for which the protein stability index with Saccharomyces cerevisiae [1] is 0.692; in the data set on Saccharomyces cerevisiae [2], 0.448.

Consider VACDSDSSSTIE [YEN1 C-terminal 12 aa], for which the protein stability index with Saccharomyces cerevisiae [3] (setting [4]) came out at 0.679 ± 0.016; in the data set on Saccharomyces cerevisiae [3] (genetic background: wild type) it was 0.699 ± 0.014.

Consider VATYLREHEYDQ [AAP1 C-terminal 12 aa], for which the protein stability index is 0.6847 ± 0.0021 in the data set with Saccharomyces cerevisiae [3] (setting [4]) and 0.7314 ± 0.0051 with Saccharomyces cerevisiae [3] (genetic background: wild type).

VDFIKEFAEKNA [SER1 C-terminal 12 aa]: the protein stability index was found to be 0.708 ± 0.011 in the data set with Saccharomyces cerevisiae [3] (setting [4]) and 0.706 ± 0.014 in the data set with Saccharomyces cerevisiae [3] (genetic background: wild type).

Turning to VDIRSFRQDMDL [YJR056C C-terminal 12 aa], the protein stability index amounted to 0.703 ± 0.021 in the data set on Saccharomyces cerevisiae [3] (setting [4]) and 0.664 ± 0.017 with Saccharomyces cerevisiae [3] (genetic background: wild type).

With VDNFISVLKQGQ [LOS1 C-terminal 12 aa], the protein stability index in the data set on Saccharomyces cerevisiae [3] (setting [4]) is 0.7081 ± 0.0044; in the data set with Saccharomyces cerevisiae [3] (genetic background: wild type) it was 0.668 ± 0.0073.

Turning to VDVLKLNDPTRH [BCY1 C-terminal 12 aa], the results for the protein stability index with Saccharomyces cerevisiae [3] (setting [4]) and in the data set on Saccharomyces cerevisiae [3] (genetic background: wild type) were 0.716 ± 0.031 and 0.706 ± 0.042, respectively.

Turning to VEAVKRVLTKKF [IMG2 C-terminal 12 aa], the protein stability index with Saccharomyces cerevisiae [3] (setting [4]) was found to be 0.6883 ± 0.0047; in the data set with Saccharomyces cerevisiae [3] (genetic background: wild type), 0.694 ± 0.012.

Turning to VFDENMYSKYSS [BRO1 C-terminal 12 aa], the protein stability index in the data set on Saccharomyces cerevisiae [3] (setting [4]) stood at 0.712 ± 0.012; in the data set with Saccharomyces cerevisiae [3] (genetic background: wild type) it was 0.712 ± 0.032.

For the sequence “VFLVISQHSLHS [YDR545C-A C-terminal 12 aa]”, the protein stability index in the data set on Saccharomyces cerevisiae [3] (setting [4]) was 0.6541 ± 0.0036; in the data set with Saccharomyces cerevisiae [3] (genetic background: wild type) it was 0.652 ± 0.011.

VGADSYAEEEEF [TUB1 C-terminal 12 aa]: the results for the protein stability index in the data set on Saccharomyces cerevisiae [3] (setting [4]) and with Saccharomyces cerevisiae [3] (genetic background: wild type) were 0.687 ± 0.032 and 0.676 ± 0.032, respectively.

For VGDIVWKIRNIN [TTI1 C-terminal 12 aa], the protein stability index was 0.689 ± 0.026 in the data set on Saccharomyces cerevisiae [3] (setting [4]) and 0.1985 ± 0.0019 with Saccharomyces cerevisiae [3] (genetic background: wild type).

As for VGDLEAGLRRKK [IMG1 C-terminal 12 aa], the protein stability index in the data set with Saccharomyces cerevisiae [3] (setting [4]) was 0.712 ± 0.0076; with Saccharomyces cerevisiae [3] (genetic background: wild type), 0.6655 ± 0.0024.

For the sequence VHCGCRGCASTD [BUD31 C-terminal 12 aa], the protein stability index in the data set on Saccharomyces cerevisiae [3] (setting [4]) came out at 0.669 ± 0.0018; in the data set with Saccharomyces cerevisiae [3] (genetic background: wild type), 0.673 ± 0.017.

For VIDLDNSVAREV [MDL1 C-terminal 12 aa], the protein stability index in the data set on Saccharomyces cerevisiae [3] (setting [4]) is 0.7044 ± 0.0069; in the data set on Saccharomyces cerevisiae [3] (genetic background: wild type), 0.64 ± 0.007.

In the case of VILMVDFTLVGP [YDR262W C-terminal 12 aa], the protein stability index with Saccharomyces cerevisiae [3] (setting [4]) amounted to 0.429 ± 0.023; in the data set with Saccharomyces cerevisiae [3] (genetic background: wild type), 0.426 ± 0.0078.
